According to patent US10918726B2, “Carbosilane dendrimer and aggregatable carrier obtained using said dendrimer for drug delivery system” (Quarrymen & Co. Inc., priority 2014, dated 2021):

Experiment: Particle size of raw materials and micelles by dynamic light scattering (DLS, ZETASIZER NANO-S)
Format: physicochemical
Settings: for particle size: DLS after overnight incubation at 37° C., measured at 25° C.; for Particle diameter peak by number / Particle diameter peak by scattering intensity / Zeta Average (average particle diameter): Table 1, raw materials and products in PBS, measured 5 times at 25° C.
Procedure: After vortex, the solution was stood at 37° C. for overnight incubation to bind GFP and the silole dendrimer, and subsequently to form the micelles. The incubation time for this experiment was about 16 to 18 hours. The properties of the micelle particles in the solution were measured by using dynamic light scattering method (DLS; Dynamic light scattering).
Also, the particle size in the reaction mixture was measured at 25° C. by using ZETASIZER NANO-S(manufactured by Malvern Instrument Ltd.) with a laser beam wavelength of 532 nm.
It was measured whether the micelles including each drug are formed in the sample to which each model drug is added; and if the micelles including the drug are formed, their particle size were measured by using the dynamic light scattering method. Here, DiI, Oil orange SS, and goat anti mouse IgG-Alexa 610 were used as drug models.
The particle properties of the target peptide sequence-binding micelle were measured by a dynamic light scattering method as the same as used in the example 1 (see FIG. 11). […] As a result, the particles having the particle size of about 100 nm to 200 nm were confirmed as the same as those in the example 1.

Compound | particle size | Particle diameter peak by number | Particle diameter peak by scattering intensity | Zeta Average (average particle diameter)
20 μM GFP only: green fluorescent protein, SEQ ID NO: 1, cysteine at position 251, cysteine 60 replaced with serine | about 4 nm | 4.682 nm | 838.8 nm | 860.7 nm
C[Si](C)(CCC[Si](CCCBr)(CCCBr)CCCBr)CCC[Si](CCCBr)(CCCBr)CCCBr [50 μM Silole only] | about 650 nm | 649.3 nm | 664.6 nm | 894.5 nm
